Data taken from patent US20230357429A1 (JANUX THERAPEUTICS, published 2023).
Where two headings read alike, the source gives them in different places. Blank lines part the entries; values can stand above or below the binder they belong to. Where no end group is shown, it is not given here.

Legend:
TBD-1 wt = molecular target: T1, TBD-1 wt; experiment: competition ELISA, peptide vs Fab binding to captured biotin-TROP2
T1 construct: Fab; the heavy chain entry is VH-CH1; also called wild-type anti-TROP2 Fab (hRS7); TROP2 Fab

[1] = molecular target: T2, TBD-1 wt (anti-TROP2 Fab, hRS7); experiment: competition ELISA, Fab on captured TROP2
T2 construct: non-mutated Fab

TBD-6 (LC I93A) = molecular target: T3, TBD-6 (LC I93A); experiment: competition ELISA, Fab on captured TROP2
T3 construct: anti-TROP2 Fab, CDR3 LC alanine mutant

TBD-11 (HC R98A) [2] = molecular target: T4, TBD-11 (HC R98A); experiment: competition ELISA, Fab on captured TROP2
T4 construct: anti-TROP2 Fab, CDR3 HC alanine mutant

TBD-17 (HC S104A) [3] = molecular target: T5, TBD-17 (HC S104A); experiment: competition ELISA, Fab on captured TROP2
T5 construct: anti-TROP2 Fab, CDR3 HC alanine mutant

TBD-22 (HC D109A) [4] = molecular target: T6, TBD-22 (HC D109A); experiment: competition ELISA, Fab on captured TROP2
T6 construct: anti-TROP2 Fab, CDR3 HC alanine mutant

TBD-11 (HC R98A) [5] = molecular target: T7, TBD-11 (HC R98A); experiment: competition ELISA, peptide vs Fab binding to captured biotin-TROP2
T7 construct: Fab; also called HC R98A mutant

TBD-17 (HC S104A) [6] = molecular target: T8, TBD-17 (HC S104A); experiment: as above
T8 construct: Fab; also called HC S104A mutant

TBD-21 (HC F108A) [7] = molecular target: T9, TBD-21 (HC F108A); experiment: as above
T9 construct: Fab; also called HC F108A mutant

TBD-22 (HC D109A) [8] = molecular target: T10, TBD-22 (HC D109A); experiment: as above
T10 construct: Fab; also called HC D109A mutant

Human TROP2 Full length = molecular target: T11, Human TROP2 Full length (human, UniProt P09758 31-323); experiment: cell-based or functional assay
T11 sequence: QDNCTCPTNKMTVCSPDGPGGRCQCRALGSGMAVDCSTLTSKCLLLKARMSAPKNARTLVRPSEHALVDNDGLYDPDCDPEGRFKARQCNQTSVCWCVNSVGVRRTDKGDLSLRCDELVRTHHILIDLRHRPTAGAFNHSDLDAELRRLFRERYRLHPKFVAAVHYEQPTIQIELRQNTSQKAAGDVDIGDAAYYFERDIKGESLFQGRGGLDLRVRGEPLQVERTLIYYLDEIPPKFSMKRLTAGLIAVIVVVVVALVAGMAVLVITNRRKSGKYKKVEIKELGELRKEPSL

Cyno TROP2 Full length = molecular target: T12, Cyno TROP2 Full length (cynomolgus monkey, UniProt P09758 31-323 (human entry)); experiment: cell-based or functional assay
T12 chain: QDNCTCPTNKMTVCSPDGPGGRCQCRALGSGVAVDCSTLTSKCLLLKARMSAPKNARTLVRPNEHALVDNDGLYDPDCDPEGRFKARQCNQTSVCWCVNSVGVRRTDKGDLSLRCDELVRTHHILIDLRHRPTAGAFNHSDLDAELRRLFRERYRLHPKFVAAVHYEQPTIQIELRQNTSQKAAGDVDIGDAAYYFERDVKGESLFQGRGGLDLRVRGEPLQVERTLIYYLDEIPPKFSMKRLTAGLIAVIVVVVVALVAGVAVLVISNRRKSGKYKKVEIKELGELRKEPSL

[9] = molecular target: T13, Human TROP2 ECD (31-274 AA) (human, UniProt P09758 31-274, biotinylated); experiment: ELISA; biotinylated TROP2 on neutravidin plates, PC titrated, HRP secondary
T13 construct: also called biotinylated TROP2; TROP2-biotin
T13 sequence: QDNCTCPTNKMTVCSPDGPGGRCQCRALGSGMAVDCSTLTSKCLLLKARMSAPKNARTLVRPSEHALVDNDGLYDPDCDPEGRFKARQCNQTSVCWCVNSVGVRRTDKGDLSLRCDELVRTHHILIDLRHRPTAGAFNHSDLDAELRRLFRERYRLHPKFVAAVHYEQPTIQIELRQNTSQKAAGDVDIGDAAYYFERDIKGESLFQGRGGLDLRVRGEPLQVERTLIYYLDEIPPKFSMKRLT

TBD-11 (HC R98A) [10] = molecular target: T7, TBD-11 (HC R98A); experiment: competition ELISA, peptide vs Fab binding to captured biotin-TROP2; remark: listed apart in the source
TBD-17 (HC S104A) [11] = molecular target: T8, TBD-17 (HC S104A); experiment: as above; remark: listed apart in the source
TBD-21 (HC F108A) [12] = molecular target: T9, TBD-21 (HC F108A); experiment: as above; remark: listed apart in the source
TBD-22 (HC D109A) [13] = molecular target: T10, TBD-22 (HC D109A); experiment: as above; remark: listed apart in the source

IC50 (TBD-1 wt): 1910 nM
Binder: TSLICFRNVYCWNV (cysteine pairing not given here; also: biotinylated, site not given here) [Peptide-30]

IC50 [1]: 6480 nM | IC50 (TBD-6 (LC I93A)): 7540 nM | IC50 (TBD-11 (HC R98A) [2]): 46200 nM | IC50 (TBD-17 (HC S104A) [3]): 27200 nM | IC50 (TBD-22 (HC D109A) [4]): 2010 nM
Binder: VDFCYQYGWPICSRLY (mask peptide for the TROP2 Fab) [Peptide-47]

IC50 (TBD-11 (HC R98A) [5]): 6810 nM | IC50 (TBD-17 (HC S104A) [6]): 1400 nM | IC50 (TBD-21 (HC F108A) [7]): 5890 nM | IC50 (TBD-22 (HC D109A) [8]): 110 nM
Binder: IDFCLIYNWPVCDT (cysteine pairing not given here; also: biotinylated, site not given here) [Peptide-63]

IC50 (TBD-11 (HC R98A) [2]): 1130 nM
Binder: VEICKQWFYTVCLS (mask peptide for the TROP2 Fab) [Peptide-58]

CyTROP2 HEK293 EC50 (pM) (Cyno TROP2 Full length): 69900 pM | EC50 [9]: 3960 nM
B1: PC-48 (bispecific antibody)
light: GGVDFCALYHWPICYQGGGGSGGGSGGSGGASSGAGGSGGGSDIQLTQSPSSLSASVGDRVSITCKASQDVSIAVAWYQQKPGKAPKLLIYSASYRYTGVPDRFSGSGSGTDFTLTISSLQPEDFAVYYCQQHYITPLTFGAGTKVEIKRTVAAPSVFIFPPSDEQLKSGTASVVCLLNNFYPREAKVQWKVDNALQSGNSQESVTEQDSKDSTYSLSSTLTLSKADYEKHKVYACEVTHQGLSSPVTKSFNRGEC
heavy: not shown
notes: Masked polypeptide complex with non-cleavable linker: anti-TROP2 F108A, anti-CD3 wt
H292 Cytotoxicity EC50 (pM) (Human TROP2 Full length): > 100000 pM | HCT116 Cytotoxicity EC50 (pM) (Human TROP2 Full length): > 100000 pM

IC50 (TBD-1 wt): 2230 nM
Binder: DNLICVKNLWCWIA (cysteine pairing not given here; also: biotinylated, site not given here) [Peptide-26]

CyTROP2 HEK293 EC50 (pM) (Cyno TROP2 Full length): 837 pM | EC50 [9]: 574 nM
B2: PC-33 (bispecific antibody)
light: GGVDFCALYHWPICYQGGGGSGGLSGRSDAGSPLGLAGSGGSDIQLTQSPSSLSASVGDRVSITCKASQDVSIAVAWYQQKPGKAPKLLIYSASYRYTGVPDRFSGSGSGTDFTLTISSLQPEDFAVYYCQQHYITPLTFGAGTKVEIKRTVAAPSVFIFPPSDEQLKSGTASVVCLLNNFYPREAKVQWKVDNALQSGNSQESVTEQDSKDSTYSLSSTLTLSKADYEKHKVYACEVTHQGLSSPVTKSFNRGEC
heavy: not shown
notes: Masked polypeptide complex: anti-TROP2 F108A, anti-CD3 wt; CD3 mask …
H292 Cytotoxicity EC50 (pM) (Human TROP2 Full length): 13200 pM

CyTROP2 HEK293 EC50 (pM) (Cyno TROP2 Full length): 10400 pM | EC50 [9]: 3510 nM
B3: PC-40 (bispecific antibody)
light: GGVDFCALYHWPICYQGGGGSGGLSGRSDAGSPLGLAGSGGSDIQLTQSPSSLSASVGDRVSITCKASQDVSIAVAWYQQKPGKAPKLLIYSASYRYTGVPDRFSGSGSGTDFTLTISSLQPEDFAVYYCQQHYITPLTFGAGTKVEIKRTVAAPSVFIFPPSDEQLKSGTASVVCLLNNFYPREAKVQWKVDNALQSGNSQESVTEQDSKDSTYSLSSTLTLSKADYEKHKVYACEVTHQGLSSPVTKSFNRGEC
heavy: EVQLVESGGGLVQPGGSLRLSCAASGSTFYTAVMGWVRQAPGKGLEWVAAIRWTALTTSYADSVKGRFTISRDGAKTTLYLQMNSLRPEDTAVYYCAARGTLGLFTTADSYDYWGQGTLVTVSSGGGGSGGGSGGYLCGPDADETLACYGGGGSGGGLSGRSDAGSPLGLAGSGGGSEVQLVESGGGLVQPGGSLKLSCAASGFTFNKYAMNWVRQASGKGLEWVGRIRSKYNNYATYYADSVKDRFTISRDDSKNTAYLQMNSLKTEDTAVYYCVRHGNFGNSYISYWAYWGQGTLVTVSSGGGGSGGGGSGGGGSQTVVTQEPSFSVSPGGTVTLTCRSSTGAVTSGNYANWVQQTPGQAPRGLIGGTKFLAPGVPDRFSGSILGNKAALTITGAQADDESDYYCVLWYSNRWVFGGGTKLTVLGGGGSQVQLQQSGSELKKPGASVKVSCKASGYTFTNYGMNWVKQAPGQGLKWMGWINTYTGEPTYTDDFKGRFAFSLDTSVSTAYLQISSLKADDTAVYFCARGGFGSSYWYADVWGQGSLVTVSSASTKGPSVFPLAPSSKSTSGGTAALGCLVKDYFPEPVTVSWNSGALTSGVHTFPAVLQSSGLYSLSSVVTVPSSSLGTQTYICNVNHKPSNTKVDKKVEPKSC
notes: Masked polypeptide complex: anti-TROP2 F108A, anti-CD3 with P41S, A49G, N87S ; E227D; CD3 mask YLCGPDADETLACY
H292 Cytotoxicity EC50 (pM) (Human TROP2 Full length): 53200 pM | HCT116 Cytotoxicity EC50 (pM) (Human TROP2 Full length): > 100000 pM

CyTROP2 HEK293 EC50 (pM) (Cyno TROP2 Full length): 10600 pM | EC50 [9]: 1360 nM
B4: PC-49 (bispecific antibody)
light: GGVDFCALYHWPICYQGGGSGGSGGISSGLLSGRSDAGSGGSDIQLTQSPSSLSASVGDRVSITCKASQDVSIAVAWYQQKPGKAPKLLIYSASYRYTGVPDRFSGSGSGTDFTLTISSLQPEDFAVYYCQQHYITPLTFGAGTKVEIKRTVAAPSVFIFPPSDEQLKSGTASVVCLLNNFYPREAKVQWKVDNALQSGNSQESVTEQDSKDSTYSLSSTLTLSKADYEKHKVYACEVTHQGLSSPVTKSFNRGEC
heavy: not shown
notes: Masked polypeptide complex with CL2 cleavable linker: anti-TROP2 F108A, anti-CD3 wt
H292 Cytotoxicity EC50 (pM) (Human TROP2 Full length): 67400 pM | HCT116 Cytotoxicity EC50 (pM) (Human TROP2 Full length): > 100000 pM

IC50 (TBD-1 wt): 2780 nM
Binder: SVLFCVKNLYCWVT (cysteine pairing not given here; also: biotinylated (site not given here)) [Peptide-24]

IC50 (TBD-11 (HC R98A) [5]): 1780 nM | IC50 (TBD-17 (HC S104A) [6]): 1600 nM | IC50 (TBD-21 (HC F108A) [7]): 1630 nM | IC50 (TBD-22 (HC D109A) [8]): 120 nM
Binder: PDFCAVYRWPICYQ (cysteine pairing not given here; also: biotinylated, site not given here) [Peptide-64]

IC50 (TBD-11 (HC R98A) [10]): 1000 nM | IC50 (TBD-17 (HC S104A) [11]): 3770 nM | IC50 (TBD-21 (HC F108A) [12]): 4010 nM | IC50 (TBD-22 (HC D109A) [13]): 130 nM
Binder: EDFCKLYNWPICYQ (cysteine pairing not given here; also: biotinylated, site not given here) [Peptide-7]

IC50 (TBD-1 wt): 2940 nM
Binder: YSLVCVKNLYCWNL (cysteine pairing not given here; also: biotinylated, site not given here) [Peptide-31]

IC50 (TBD-1 wt): 740 nM
Binder: FSLVCVRNLYCWNV (cysteine pairing not given here; also: biotinylated, site not given here) [Peptide-27]

IC50 [1]: 9290 nM | IC50 (TBD-6 (LC I93A)): 14500 nM | IC50 (TBD-11 (HC R98A) [2]): 409000 nM | IC50 (TBD-17 (HC S104A) [3]): 39600 nM | IC50 (TBD-22 (HC D109A) [4]): 2500 nM
Binder: VDFCYQYGWPICSRVD (mask peptide for the TROP2 Fab) [Peptide-45]

IC50 [1]: 14300 nM | IC50 (TBD-6 (LC I93A)): 12300 nM | IC50 (TBD-11 (HC R98A) [2]): 19100 nM | IC50 (TBD-17 (HC S104A) [3]): 15700 nM | IC50 (TBD-22 (HC D109A) [4]): 890 nM
Binder: VDFCYQYAWPVCSTGD (mask peptide for the TROP2 Fab) [Peptide-52]

IC50 (TBD-1 wt): 1610 nM
Binder: VDFCSFYRWPICET (cysteine pairing not given here; also: biotinylated (site not given here)) [Peptide-20]

IC50 (TBD-1 wt): 1630 nM
Binder: NYLLCVKNLYCWIV (cysteine pairing not given here; also: biotinylated, site not given here) [Peptide-28]

IC50 (TBD-11 (HC R98A) [2]): 3550 nM
Binder: VEFCKQWTWFGCMT (mask peptide for the TROP2 Fab) [Peptide-44]
